Measurements as given in patent US10131702B2, “Glucagon-GLP-1-GIP triple agonist compounds” (priority 2013, dated 2018).
Like-named read-outs stand apart in the source and are kept apart here.

Legend:
Assay in all cases: cell-based or functional assay
[1] = biological target: human glucagon-like peptide 1 receptor (human) (UniProt P43220)
[2] = biological target: human GIP receptor (human) (UniProt P48546)
[3] = biological target: human glucagon-like peptide 1 receptor (human) (UniProt P43220); remark: listed apart in the source
[4] = biological target: human GIP receptor (human) (UniProt P48546); remark: listed apart in the source
[5] = biological target: human glucagon receptor (human) (UniProt P47871)
human glucagon receptor (human), sequence (P47871 26-477): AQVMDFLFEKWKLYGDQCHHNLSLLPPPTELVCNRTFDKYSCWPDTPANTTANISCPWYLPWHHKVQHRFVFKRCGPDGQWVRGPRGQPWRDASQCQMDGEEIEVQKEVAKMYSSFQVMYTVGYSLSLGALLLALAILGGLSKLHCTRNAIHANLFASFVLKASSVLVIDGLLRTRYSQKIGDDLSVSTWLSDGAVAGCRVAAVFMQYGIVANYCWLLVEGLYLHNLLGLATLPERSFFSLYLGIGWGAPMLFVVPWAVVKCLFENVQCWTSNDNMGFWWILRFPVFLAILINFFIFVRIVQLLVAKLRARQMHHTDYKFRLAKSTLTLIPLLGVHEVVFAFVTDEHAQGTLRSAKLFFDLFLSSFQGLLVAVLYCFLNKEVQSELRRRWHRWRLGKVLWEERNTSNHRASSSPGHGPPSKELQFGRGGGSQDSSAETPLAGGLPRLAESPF

human glucagon-like peptide 1 receptor (human), sequence (P43220 24-463): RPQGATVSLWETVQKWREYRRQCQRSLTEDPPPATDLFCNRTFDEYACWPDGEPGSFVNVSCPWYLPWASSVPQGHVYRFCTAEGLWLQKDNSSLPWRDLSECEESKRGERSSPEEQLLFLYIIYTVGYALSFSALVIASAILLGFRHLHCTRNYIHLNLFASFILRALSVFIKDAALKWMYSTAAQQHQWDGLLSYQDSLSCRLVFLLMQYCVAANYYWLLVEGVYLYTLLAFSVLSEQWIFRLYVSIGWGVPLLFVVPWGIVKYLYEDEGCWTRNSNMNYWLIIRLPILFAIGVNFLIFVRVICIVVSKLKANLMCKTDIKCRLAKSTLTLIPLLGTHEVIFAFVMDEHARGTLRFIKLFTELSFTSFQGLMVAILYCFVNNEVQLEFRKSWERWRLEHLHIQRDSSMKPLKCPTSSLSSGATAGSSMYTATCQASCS

B1: Compound 15 (peptide)
peptide: YXQGTFTSDYSIYLEKKAAHDFVEWLLSA
HELM: PEPTIDE1{Y.[Aib].Q.G.T.F.T.S.D.Y.S.I.Y.L.E.K.K.A.A.H.D.F.V.E.W.L.L.S.A.[am]}$$$$V2.0
SMILES: CC[C@H](C)[C@H](NC(=O)[C@H](CO)NC(=O)[C@H](Cc1ccc(O)cc1)NC(=O)[C@H](CC(=O)O)NC(=O)[C@H](CO)NC(=O)[C@@H](NC(=O)[C@H](Cc1ccccc1)NC(=O)[C@@H](NC(=O)CNC(=O)[C@H](CCC(N)=O)NC(=O)C(C)(C)NC(=O)[C@@H](N)Cc1ccc(O)cc1)[C@@H](C)O)[C@@H](C)O)C(=O)N[C@@H](Cc1ccc(O)cc1)C(=O)N[C@@H](CC(C)C)C(=O)N[C@@H](CCC(=O)O)C(=O)N[C@@H](CCCCN)C(=O)N[C@@H](CCCCN)C(=O)N[C@@H](C)C(=O)N[C@@H](C)C(=O)N[C@@H](Cc1c[nH]cn1)C(=O)N[C@@H](CC(=O)O)C(=O)N[C@@H](Cc1ccccc1)C(=O)N[C@H](C(=O)N[C@@H](CCC(=O)O)C(=O)N[C@@H](Cc1c[nH]c2ccccc12)C(=O)N[C@@H](CC(C)C)C(=O)N[C@@H](CC(C)C)C(=O)N[C@@H](CO)C(=O)N[C@@H](C)C(N)=O)C(C)C
Q: What does the source list for B1?
A: EC50 (cAMP induction) [1]: 0.016 nM; EC50 (cAMP induction) [2]: 0.025 nM; EC50 (cAMP induction) [3]: 0.058 nM; EC50 (cAMP induction) [4]: 0.014 nM; EC50 (cAMP induction) [5]: 0.058 nM
